# According to article PMC5159555 (Nucleic Acids Research, 2016):
# Residue numbers refer to the chain shown, from its start. Numbers in names are those of the source. Read-outs that look alike come from different tables or passages of the source.
# B1: chicken RAD51 (natural protein, UniProt P37383 1-339, looked up)
# chain: MAMQVQFEASTDTSAEEESFGPEPISRLEQCGINANDVKKLEEAGYHTVESVAHAPKKELLNIKGISEAKADKILAEAAKLVPMGFTTATEFHQRRSEIIQITTGSKELDKLLQGGIETGSITELFGEFRTGKTQLCHTLAVTCQLPIDRGGGEGKAMYIDTEGTFRPERLLAVAERYGLSGSDVLDNVAYARGFNTDHQTQLLYQASAMMAESRYALLIVDSATALYRTDYSGRGELSARQMHLARFLRMLLRLADEFGVAVVITNQVVAQVDGAAMFAADPKKPIGGNIIAHASTTRLYLRKGRGETRICKIYDSPCLPEAEAMFAINADGVGDAKE
# B2: His6-tagged chicken RAD51 (natural protein, UniProt P37383 1-339, looked up)
# chain: B1 chain
# B3: His6-tagged chicken RAD51 F86E mutant (natural protein, UniProt P37383 1-339, looked up)
# chain: B1 chain with F86E
# B4: chicken FANCI (natural protein, UniProt B0I564 1-1338, looked up)
# chain: MAQRILQLAAEGSPERLQEALQGLTEGELGDMVTRQALRGRETAALLKGIFKGSPCSQQSGVLRRLQVYKHCVSLVESGDLHVGKVSEIIGLLMLEARQLPGHALAELATLFVEVIKRGSLSNGKSLELFSTVLTALSNSKESLAYGKGELNGEEFKKQLINTLCSSKWDPQCVIHLANMFRDIPLSGEELQFVVEKVLRMFSKLDLQEIPPLVYQLLLLSAKGSKKTVLEGIISFFNQLDKRQKEEQRVPQSADLEVATVPLDQLRHVEGTVILHIVSAINLDQDIGEELIKHLKTEQQKDPGKALCPFSVSLLLSTAVKHRLQEQIFDFLKTSITRSCKDLQILQASKFLQDLCPQQYDVTAVILEVVKNSAFGWDHVTQGLVDLGFSLMESYEPKKSFGGKAAETNLGLSKMPAQQACKLGASILLETFKVHEPIRSDILEQVLNRVLTKAASPVSHFIDLLSNIVVSAPLVLQNSSSRVTETFDNLSFLPIDTVQGLLRAVQPLLKVSMSVRDSLILVLQKAIFSRQLDARKAAVAGFLLLLRNFKILGSLTSSQCSQAIGATQVQADVHACYNSAANEAFCLEILGSLRRCLSQQADVRLMLYEGFYDVLRRNSQLASSIMETLLSQIKQYYLPQQDLLPPLKLEGCIMAQGDQIFLQEPLAHLLCCIQHCLAWYKSTVHLCKGAEDEEEEEDVGFEQNFEEMLESVTRRMIKSELEDFELDKSADFSPSSGVGVKNNIYAIQVMGICEVLIEYNFKIGNFSKNKFEDVLGLFTCYNKLSEILKEKAGKNKSTLGNRIARSFLSMGFVSTLLTALFRDNAQSHEESLAVLRSSTEFMRYAVSVALQKVQQLEEMGQTDGPDGQNPEKMFQNLCKITRVLLWRYTSIPTAVEESGKKKGKSISLLCLEGLLRIFNTMQQLYAARIPQFLQALDITDGDAEEADINVTEKAAFQIRQFQRSLVNQLSSAEDDFNSKETQLLITILSTLSKLLDPGSQQFLQFLTWTVKICKENALEDLSCCKGLLTLLFSLHVLYKSPVSLLRELAQDIHACLGDIDQDVEIESRSHFAIVNVKTAAPTVCLLVLGQADKVLEEVDWLIKRLTILGSDTSEDSTQASNQTQALEKGVILQLGTLLTVFHELVQTALPAGSCVDSLLRSLSKTYAILTSLIKHYIQACRSTSNTVPGRLEKLVKLSGSHLTPQCYSFITYVQNIHSESLSFAEEKKKKKKEDETAVVSTVMAKVLRDTKPIPNLIFAIEQYEKFLIHLSKKSKVNLMQYMKLSTSRDFRINASMLDSVLQEQNTEDAENEPDNNQSGTAEQPDENQEPQKKRRRKK
# How the values were obtained:
# [1] = target: T1, His6-tagged chicken FANCI (chicken, UniProt B0I564 1-1338); assay: pull-down
# T1 sequence (looked up): B4 chain
# [2] = target: His6-tagged chicken FANCD2 (chicken, UniProt Q68Y81 1-1439); assay: pull-down
# His6-tagged chicken FANCD2, sequence (Q68Y81 whole entry): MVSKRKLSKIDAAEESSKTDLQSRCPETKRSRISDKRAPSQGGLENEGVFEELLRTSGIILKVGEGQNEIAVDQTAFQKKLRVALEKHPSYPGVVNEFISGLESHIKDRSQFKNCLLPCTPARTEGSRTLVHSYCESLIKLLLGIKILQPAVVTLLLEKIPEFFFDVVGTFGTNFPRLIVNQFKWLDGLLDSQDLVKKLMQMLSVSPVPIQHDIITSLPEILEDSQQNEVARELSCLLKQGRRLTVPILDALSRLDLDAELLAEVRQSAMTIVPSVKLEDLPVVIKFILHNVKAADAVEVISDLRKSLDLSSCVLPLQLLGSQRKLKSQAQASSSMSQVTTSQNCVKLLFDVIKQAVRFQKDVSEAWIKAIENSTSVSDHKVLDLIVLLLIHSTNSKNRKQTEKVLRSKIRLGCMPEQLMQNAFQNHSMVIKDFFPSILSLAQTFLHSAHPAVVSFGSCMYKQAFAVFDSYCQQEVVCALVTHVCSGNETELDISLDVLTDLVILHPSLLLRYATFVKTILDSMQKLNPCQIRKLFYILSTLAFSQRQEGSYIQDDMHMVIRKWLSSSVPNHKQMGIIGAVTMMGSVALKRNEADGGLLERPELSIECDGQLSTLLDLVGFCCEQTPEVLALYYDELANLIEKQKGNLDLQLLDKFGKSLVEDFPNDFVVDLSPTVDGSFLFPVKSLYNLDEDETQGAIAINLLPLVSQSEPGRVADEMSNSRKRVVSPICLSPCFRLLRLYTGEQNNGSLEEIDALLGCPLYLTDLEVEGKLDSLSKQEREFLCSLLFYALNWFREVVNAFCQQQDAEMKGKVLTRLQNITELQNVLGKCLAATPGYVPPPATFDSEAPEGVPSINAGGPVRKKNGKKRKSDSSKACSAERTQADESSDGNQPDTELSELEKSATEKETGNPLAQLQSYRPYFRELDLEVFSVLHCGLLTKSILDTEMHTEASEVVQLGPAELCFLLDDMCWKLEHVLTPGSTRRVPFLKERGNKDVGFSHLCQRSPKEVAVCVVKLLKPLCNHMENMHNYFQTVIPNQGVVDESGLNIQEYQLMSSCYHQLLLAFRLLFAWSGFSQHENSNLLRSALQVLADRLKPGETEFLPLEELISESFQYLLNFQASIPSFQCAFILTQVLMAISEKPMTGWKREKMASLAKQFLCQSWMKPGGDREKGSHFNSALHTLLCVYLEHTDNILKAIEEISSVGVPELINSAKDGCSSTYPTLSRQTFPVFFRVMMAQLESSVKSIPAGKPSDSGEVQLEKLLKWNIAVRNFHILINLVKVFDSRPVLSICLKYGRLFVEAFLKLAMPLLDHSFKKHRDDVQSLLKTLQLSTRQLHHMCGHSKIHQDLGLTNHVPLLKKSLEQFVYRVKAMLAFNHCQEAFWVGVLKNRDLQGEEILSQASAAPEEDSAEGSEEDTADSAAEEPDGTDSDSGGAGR
# [3] = target: His6-tagged FANCD2 complexed with FANCI (chicken, UniProt Q68Y81 1-1439; B0I564 1-1338); assay: pull-down
# His6-tagged FANCD2 complexed with FANCI, sequence (Q68Y81 whole entry, one chain of several): as the sequence (Q68Y81 whole entry) above
# [4] = target: T2, FANCI-FANCD2 (I-D) complex (chicken, UniProt B0I564 1-1338; Q68Y81 1-1439); assay: pull-down
# T2 sequence (Q68Y81 whole entry, one chain of several): as the sequence (Q68Y81 whole entry) above
# [5] = target: T2, FANCI-FANCD2 (I-D) complex; assay: pull-down; remark: listed apart in the source
# [6] = target: chicken FANCD2 (chicken, UniProt Q68Y81 1-1439); assay: SEC
# chicken FANCD2, sequence (Q68Y81 whole entry): as above
binder,measurement,setting,value
B1,binding result,[1],binds
same,binding result,[2],binds
same,binding result,[3],binds
same,binding result,[4],binds
B2,binding result,[5],binds
B3,binding result,[5],binds
B4,binding result,[6],binds
